Laboratory results taken from the supplement of paper PMC9170038.

Key:
MS2 coat protein [1] = assay: apparent KD of MS2 coat protein, switch OFF state (with FMN for OFF switches, without FMN for ON switches); designed switch direction (-1 OFF switch, 1 ON switch): -1; higher = weaker reporter binding; conditions: FMN input: 0 or 200 uM; Eterna round: R93 (includes R88 designs)
How it was run: (§1)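 Designed RNA switches were transcribed on-chip from Illumina sequencing clusters. They were then titrated with SNAP-549-labelled MS2 coat protein (twofold steps, 0.7 or 1.5 nM to 3 µM; 0.8–1.5 h to 10–20 min per step) in 100 mM Tris-HCl pH 7.5, 80 mM KCl, 4 mM MgCl2, without or with constant ligand. Apparent KD is the per-design median of normalised cluster binding-curve fits.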

MS2 coat protein [2] = assay: apparent KD of MS2 coat protein, switch ON state; designed switch direction (-1 OFF switch, 1 ON switch): -1; higher = weaker reporter binding; conditions: FMN input: 0 or 200 uM; Eterna round: R93 (includes R88 designs)
How it was run: as §1

MS2 coat protein [3] = assay: apparent KD of MS2 coat protein; designed switch direction (-1 OFF switch, 1 ON switch): 1; higher = weaker reporter binding
How it was run: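 Designed RNA switches sharing common flanks were transcribed on Illumina chips by stalled E. coli RNA polymerase. They were titrated with SNAP-549-labelled MS2 coat protein, from 0.7 or 1.5 nM doubling to 3 µM, in Tris-HCl pH 7.5 buffer with KCl, MgCl2, BSA, DTT, tRNA and Tween-20. Titrations ran without input, with 200 uM small-molecule ligand, or with an oligonucleotide input. The apparent KD of each design is the median over its clusters, after curve-fitting of normalised cluster fluorescence.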

[4] = input ligand: microRNA oligo, concentration not stated
[5] = Eterna round: R95, input ligand: FMN 200 uM
[6] = Eterna round: R95, input ligand: microRNA oligo, concentration not stated
[7] = Eterna round: R95, input ligand: none

Sequence	apparent KD of MS2 coat protein (MS2 coat protein [1]) [µM]	apparent KD of MS2 coat protein (MS2 coat protein [2]) [µM]	apparent KD of MS2 coat protein (MS2 coat protein [3]; [4]) [µM]	further results
AAUUCACAUGAGGAUCACCCAUGUAAGGAUAUCGAAAUAAAACUAAUCAAUAAACAAACGAGAAGGUACAAAAA [Exclusion 1 design 8]	0.024	0.0204	–	–
UAUAUACAUGAGGAUCACCCAUGUCAGGAUAUGCGCCCAGAAUAUACAUAUGAUACAAGCAGAAGGGACACUAA [JR_Exc001_Sub205]	0.0493	0.0553	–	–
AAGAAGUGAGGAUAUGCUUGUCGUCACAAAAGUGAUGACGAGCAGAAGGCACAUGAGGAUCACCCAUGUAAAGA [Opal 27]	0.0499	0.0371	–	–
AAGAAGCUAGGAUAUACAUGAGGAUCACCCAUGUAAAAGAAAGAAAGGGAAAAGAAAAGUAGAAGGAGCAAGAA [Netjerikheperre-setpenamun Siamun-meryamun]	0.0181	0.0122	–	–
GAAAAGGCAGGAUAUACAGGAUAUAGAAGGAGGAUAUAGAGACAUGAGGAUCACCCAUGUAGAAGGGCCAAAAG [Diamond 80]	0.113	0.0483	–	–
AAGAAGUAAGGAUAUGCUGCUCGUCACAAAAGUGAUGAGUAGCAGAAGGUACAUGAGGAUCACCCAUGUAAAUA [Opal 32]	0.0172	0.0253	–	–
AAAAAACAUGAGGAUCACCCAUGUAAGGAUAUGCAAAAUAAAAGAAAUAAAAAGGAAAGCAGAAGGUACAUGAA [JL wbt mod 8]	0.0425	0.0219	–	–
ACAAGGUCAGGAUAUACAUGAGGAUCACCCAUGUGAGAAUUCGAUUAAAACACACAAAGUAGAAGGGACCAGGA [Ruby 83]	0.0336	0.022	–	–
AAAAAGCGAGGAUAUACAUGAGGAUCACCCAUGUGAAAAAAAAAAAAAAAAAAAAAAAGUAGAAGGCGCAAAAA [H20 RNA]	0.0392	0.0464	–	–
AAGAACGCAGGAUAUACAUGAGGAUCACCCAUGUAAAAGAAAGAGGGAAAAGAGAAAAGUAGAAGGGCGAAGAA [Setepenre-meryamun Ptolemy I Soter]	0.0578	0.037	–	–
AGGAAACAUGAGGAUCACCCAUGUUAGGAUAUGAACGAAAUAAAAUAAAAAUAAAAGUUCAGAAGGGACAAAAA [Mat - Exclusion 1 - Eli mod - D20]	0.0496	0.0249	–	–
AAAAAGUCAGGAUAUUCGGAAGGGAAAGCGCAAACCCAACCGAAGAAGGGACAUGAGGAUCACCCAUGUAAAAA [Ecls4-III]	0.0429	0.0496	–	–
CCAGGACAUGAGGAUCACCCAUGUGAGGAUAUCUGUAUUCAAUCCUCGGAUUGAAUACAGAGAAGGCACAUGGA [Ex1: 659]	0.0268	0.0386	–	–
AGUCAUACAGGAUAUACAUGAGGAUCACCCAUGUAAAUCCUAAAAAAAUGAUCCUCAUGUAGAAGGGUAUGACA [EX3 221: Super Stable 21]	0.0144	0.0168	–	–
UCCUCACAUGAGGAUCACCCAUGUUAGGAUAUGCCCGGCGGGUUCUGACCUGCCUAAAGCAGAAGGAACGUGCG [Cexequge]	0.0701	0.0166	–	–
AGUAGAUCAGGAUAUACAUAAAUGAUAAUUAUGUAACUUUUACAUGAGGAUCACCCAUGUAGAAGGGAUCUACA [Ex2 Design 130: Not so Super Stable 18]	0.0158	0.0148	–	–
GUGGUCAGACAUGAGGAUCACCCAUGUGGAAUAAAUAACAGACAGGAUAUCUAAUAUAGGAUAUAGGAGAAGGGUCGAUUGGUG (Eterna round: R96, puzzle: Same State NG 3)	–	–	0.0735	–
GCUCGAUGAGCUGUCUACAUGAGGAUCACCCAUGUAGAUGCGGAGGAUAUUUACGUGCUUUAUGUAGAGAAGGCCGUAUCGAGC [SameState NG3 #79] (Eterna round: R96, puzzle: Same State NG 3)	–	–	0.0156	apparent KD of MS2 coat protein (MS2 coat protein [3]; input ligand: FMN 200 uM): 0.012 µM; apparent KD of MS2 coat protein (MS2 coat protein [3]; input ligand: none): 0.0179 µM
ACAAGCUUUUUAGGAGAGAAAGGUGGGAUACAUGAGGAUCACCCAUGUAUGGUAGUUAAUAGUGGACCUCGUCUUAU [JR_SHM208A_Sub082] (puzzle: Sensor for hsa-mir-208a)	–	–	–	apparent KD of MS2 coat protein (MS2 coat protein [3]; [5]): 0.0465 µM; apparent KD of MS2 coat protein (MS2 coat protein [3]; [6]): 0.0217 µM; apparent KD of MS2 coat protein (MS2 coat protein [3]; [7]): 0.0641 µM
UACAAUCUAUCUGAGGAUAUCAUGAAAAAAACAUGAGGAUCACCCAUGUGCAGGAAAACUGCAUAUGAGAAGGCAGAUAGAUUGC [salish99_SS2_r3_008] (puzzle: Same State 2)	–	–	–	apparent KD of MS2 coat protein (MS2 coat protein [3]; [5]): 0.0341 µM; apparent KD of MS2 coat protein (MS2 coat protein [3]; [6]): 0.806 µM; apparent KD of MS2 coat protein (MS2 coat protein [3]; [7]): 1.32 µM
UUACAUGAGGAUCACCCAUGUCGCUGGUAAACUUCGAACCCGCAGGAUAUGUAUGCCACUUUACGACAGAAGGGCGGGUGCCUG [Eternabot solution 47] (Eterna round: R96, puzzle: Same State NG 3)	–	–	0.0503	apparent KD of MS2 coat protein (MS2 coat protein [3]; input ligand: FMN 200 uM): 0.0379 µM; apparent KD of MS2 coat protein (MS2 coat protein [3]; input ligand: none): 0.0643 µM
UGCUAUUGUAUAUUGGUGCAAGCUUUUUGACAUGAGGAUCACCCAUGUACUCGUCAUUAGCGCAGUCCGUAGACUGC (puzzle: Sensor for hsa-mir-208a)	–	–	–	apparent KD of MS2 coat protein (MS2 coat protein [3]; [5]): 0.0742 µM; apparent KD of MS2 coat protein (MS2 coat protein [3]; [6]): 0.0157 µM; apparent KD of MS2 coat protein (MS2 coat protein [3]; [7]): 0.079 µM
UUUGCAUGACGAGGAUAUCAUUUAUUUCUUGAUUGAGAAGGCGUUCUUUUUACUACCUAACAUGAGGAUCACCCAUGUGACAGU [JR_SSNG1_Sub048] (Eterna round: R96, puzzle: Same State NG 1)	–	–	0.0113	–
AGGCUCAGACGAGGAUAUGAUCAUGGCGCUUCGGCGCAUACAUGAGGAUCACCCAUGUAGGGUGAUCAGAAGGUGUCUGAGCCA [SSNG2/8-B1] (Eterna round: R96, puzzle: Same State NG 2)	–	–	0.505	apparent KD of MS2 coat protein (MS2 coat protein [3]; input ligand: FMN 200 uM): 0.0921 µM; apparent KD of MS2 coat protein (MS2 coat protein [3]; input ligand: none): 1.21 µM
CUGAAAUGUCAAGGAUAUCACGUCGAUUAGACGUGAGAAGGUGAUCUGCACAUGAGGAUCACCCAUGUGUUACAUGGAAUUCAG [Brourd's SSNG1/1-A2 mod 13] (Eterna round: R96, puzzle: Same State NG 1)	–	–	0.406	apparent KD of MS2 coat protein (MS2 coat protein [3]; input ligand: FMN 200 uM): 0.166 µM; apparent KD of MS2 coat protein (MS2 coat protein [3]; input ligand: none): 0.503 µM
GCUGCAAGGGCAGGAUAUGGGUCCAAAGCGCAAGUGCGCUUUGGUACAUGAGGAUCACCCAUGUCCCAGAAGGGCCCAUGCGGC [Edenbiatar] (Eterna round: R96, puzzle: Same State NG 2)	–	–	0.0784	apparent KD of MS2 coat protein (MS2 coat protein [3]; input ligand: FMN 200 uM): 0.0155 µM; apparent KD of MS2 coat protein (MS2 coat protein [3]; input ligand: none): 0.123 µM
UGUUGUUAAUUAGGAUAUGGACACAUGAGGAUCACCCAUGUAAUGUCGAUGCUAUGUGGACACGUUCAGAAGGAAUGGCUAACA [SameState NG2 #92] (Eterna round: R96, puzzle: Same State NG 2)	–	–	0.0532	apparent KD of MS2 coat protein (MS2 coat protein [3]; input ligand: FMN 200 uM): 0.0297 µM; apparent KD of MS2 coat protein (MS2 coat protein [3]; input ligand: none): 0.0584 µM
AUUUAACAAGCUUUUUGCUCGUCUUAUAAACAUGAGGAUCACCCAUGUAAUAGCGUGAGAGUAAUUUAAUAAAUAAU [JMF 84] (puzzle: Sensor for hsa-mir-208a)	–	–	–	apparent KD of MS2 coat protein (MS2 coat protein [3]; [5]): 0.0137 µM; apparent KD of MS2 coat protein (MS2 coat protein [3]; [6]): 0.0511 µM; apparent KD of MS2 coat protein (MS2 coat protein [3]; [7]): 0.0134 µM
GGUAAGAAUUAAGGAUAUCGAGUACAUAUGUUUAACAUGAGGAUCACCCAUGUGGGUUGCGGUAUCGAGAAGGUAAAUUACAAG [Mat - same State NG 2 - JL mod - D62] (Eterna round: R96, puzzle: Same State NG 2)	–	–	0.0357	apparent KD of MS2 coat protein (MS2 coat protein [3]; input ligand: FMN 200 uM): 0.0407 µM; apparent KD of MS2 coat protein (MS2 coat protein [3]; input ligand: none): 0.0418 µM
